Measured values taken from US20160122432A1 (INSERM INSTITUT NATIONAL DE LA SANTE ET DE LA RECHERCHE …, published 2016).
Values belong to the binder of their own block, whether it stands above or below them.

Molecular target: T1, human HER2 receptor (human, UniProt P04626 23-1255)
T1 construct: whole, on cells; Endogenous HER2 on human cancer cell lines; also called Human Epidermal Growth Factor Receptor 2; Neu
Assay: flow cytometry, biotinylated antibody titrated on SK-BR-3 cells, PE-streptavidin, apparent affinity
Source text: After a washing step, bound antibodies were detected using PE-labeled streptavidin and analyzed by FACS. The inverse of the fluorescence was plotted as a function of the inverse of antibody concentration.

Kd: 51.6 nM
B1: HER2.C7b sdAb (VHH, not shown: small tags and cut ends)
VHH: QVQLVQSGGGLVQAGGSLRLSCAASGRTFSSYAMAWFRQAPGKEREFVAAISWSGANIYVADSVKGRFTISRDNAKDTVYLQMNSLKPEDTAVYYCAVKLGFAPVEERQYDYWGQGTQVTVSS
modifications: biotinylated in vitro (Ez-link micro NHS-PEO4-biotinylation kit) for the affinity determination; sites not stated
notes: also called sdAb HER2.C7b; anti HER2 sdAb HER2.C7b

Kd: 2.9 nM
B2: HER2.C7b-Fc (Fc fusion)
chain: B1 VHH
modifications: biotinylated in vitro for the affinity determination; sites not stated
notes: Bivalent for HER2: two HER2.C7b sdAb fused to the constant part of human IgG1; also called Sdab HER2.C7b-Fc; aHER2.C7b-Fc; not shown: hinge, CH1 and CH2 domains of a human IgG1 (so in the source)
